Measurements taken from patent US20260166085A1 (BEAM THERAPEUTICS, published 2026).
Changes are numbered by the printed parent chain.

B1: ABTx202 (antibody, human IgG1, V domains shown)
VH: EVQLVESGGGLVQPGRSLRLSCAASGFTFDDYAMHWVRQAPGKGLEWVSGISWNSGTIGYADSVKGRFTSSRDNAKNSLYLEMNSLRAEDTALYYCAKDSPPGYCSSASCYGAFDIWGQGTMVTVSS
VL: EIVMTQSPGTLSLSPGERATLSCRASQSVSSSYLAWYQQKPGQAPRLLIYGSSTRATGIPARFSGSGSGTEFALTISSLQSEDFAVYYCQQYNFWPYTFGQGTKVEIK
B2: ABTx205 (antibody, human IgG1, V domains shown)
VH: B1 VH with S70N
VL: DIVMTQSPSFLSASVGDRVTITCRASQGISSYLAWYQQKPGKAPKLLIYAASTLQNGVPSRFSGSGSGTDFTLTITSLQPEDFATYYCQQSYSTPYTFGQGTKLEIK
B3: ABTx206 (antibody, human IgG1, V domains shown)
VH: B1 VH with S70N, W117R
VL: B2 VL
B4: ABTx203 (antibody, human IgG1, V domains shown)
VH: B1 VH with S70N, S100W, P102S, Y104F, S109Y
VL: B2 VL
B5: ABTx052 variant VL_F91T (antibody, human IgG1, V domains shown)
VH: QVQLVQSGAAVKKPGESLKISCKGSGYRFTSYWIGWVRQMPGKGLEWMGIIYPGDSDTRYSPSFQGQVTISAGKSISTAYLQWSSLKASDTAMYYCARHGRGYNGYEGAFDIWGQGTMVTVSS
VL: AIQLTQSPSSLSASVGDRVTITCRASQGISSALAWYQQKPGKAPKLLIYDASSLESGVPSRFSGSGSGTDFTLTISSLQPEDFATYYCQQTNSYPLTFGGGTKVEIK
B6: ABTx052 variant VL_S93G (antibody, human IgG1, V domains shown)
VH: B5 VH
VL: B5 VL with T91F, S93G
B7: ABTx052 variant VH_N104D (antibody, human IgG1, V domains shown)
VH: B5 VH with N104D
VL: AIQLTQSPSSLSASVGDRVTITCRASQGISSALAWYQQKPGKAPKLLIYDASSLESGVPSRFSGSGSGTDFTLTISSLQPEDFATYYCQQFNSYPLTFGGGTKVEIKR
B8: ABTx052 variant VH_G105A (antibody, human IgG1, V domains shown)
VH: B5 VH with G105A
VL: B7 VL
B9: ABTx251 (antibody, human IgG1, kappa, V domains shown)
VH: B5 VH with N104D
VL: B7 VL with N92Y
B10: ABTx272 (antibody, human IgG1, kappa, V domains shown)
VH: B5 VH with R59K, N104D, E107D
VL: B7 VL with F91V, N92R
B11: ABTx273 (antibody, human IgG1, kappa, V domains shown)
VH: B5 VH with N104D
VL: B7 VL with N92R
B12: ABTx262 (antibody, human IgG1, kappa, V domains shown)
VH: B5 VH with N104D, G105A
VL: B7 VL with N92R, Y94S
B13: ABTx267 (antibody, human IgG1, kappa, V domains shown)
VH: B5 VH with R59K, N104D, G105A, E107D
VL: B7 VL with F91T, Y94S
B14: ABTx261 (antibody, human IgG1, kappa, V domains shown)
VH: B5 VH with R59K, N104D, G105A
VL: B7 VL with F91T, N92R
B15: ABTx268 (antibody, human IgG1, kappa, V domains shown)
VH: B5 VH with R59K, N104D
VL: B7 VL with F91V
B16: ABTx269 (antibody, human IgG1, kappa, V domains shown)
VH: B5 VH with R59K, N104D
VL: B7 VL with F91V, N92Y
B17: ABTx270 (antibody, human IgG1, kappa, V domains shown)
VH: B5 VH with N104D, G105A
VL: B7 VL with F91V, N92R
B18: ABTx258 (antibody, human IgG1, kappa, V domains shown)
VH: B5 VH with R59K, N104D, G105A
VL: B7 VL with F91V, N92R
B19: ABTx263 (antibody, human IgG1, kappa, V domains shown)
VH: B5 VH with R59K, N104D, E107D
VL: B7 VL with F91V, N92Y
B20: ABTx256 (antibody, human IgG1, kappa, V domains shown)
VH: B5 VH with N104D, G105A
VL: B7 VL with F91T, N92Y
B21: ABTx265 (antibody, human IgG1, kappa, V domains shown)
VH: B5 VH with R59K, N104D, E107D
VL: B7 VL with F91T, N92R
B22: ABTx030 (antibody, V domains shown)
VH: QVQLQESGGGLVKPGGSLRLSCAASGFTFSSYSMNWVRQAPGKGLEWVSSIGTISSYIYYADSVKGRFTISRDNAKNSLYLQMNSLRAEDTAVYYCARDYYGGLFDYWGQGTLVTVSS
VL: not shown

target: T1, Wild type CD117 purified protein (human, UniProt P10721 26-520, limits assumed); assay: summary Table 75 (repeats Table 71)
T1 construct: Protein used in BLI/kinetics and cryo-EM; also called wt CD117; Wt CD117
T1 sequence (P10721 26-520 limits assumed): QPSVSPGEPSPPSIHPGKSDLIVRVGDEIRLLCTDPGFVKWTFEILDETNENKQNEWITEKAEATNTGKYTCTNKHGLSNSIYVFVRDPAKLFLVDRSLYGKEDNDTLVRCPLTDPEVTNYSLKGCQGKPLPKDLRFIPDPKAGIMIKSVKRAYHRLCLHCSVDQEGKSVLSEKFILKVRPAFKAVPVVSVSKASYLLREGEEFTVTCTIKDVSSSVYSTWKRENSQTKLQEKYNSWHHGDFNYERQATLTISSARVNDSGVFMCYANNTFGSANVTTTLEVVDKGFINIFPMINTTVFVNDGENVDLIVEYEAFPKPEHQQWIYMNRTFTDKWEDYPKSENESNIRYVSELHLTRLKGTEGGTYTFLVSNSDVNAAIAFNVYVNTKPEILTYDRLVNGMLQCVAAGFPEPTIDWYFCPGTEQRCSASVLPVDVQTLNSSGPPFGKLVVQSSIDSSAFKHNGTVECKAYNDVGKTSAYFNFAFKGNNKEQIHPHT

Kd [nM] | Binder
2.42 | B1
2.07 | B2
1.26 | B3
6.62 | B4

target: T1, Wild type CD117 purified protein; assay: binding kinetics, FIGS. 45A-45K

Kd [nM] | koff [s⁻¹] | kon [M⁻¹ s⁻¹] | Binder
0.191 | 0.000104 | 543000 | B5
0.0716 | 4.81e-05 | 671000 | B6
0.495 | 0.000342 | 691000 | B7
0.254 | 0.000153 | 601000 | B8

target: T2, Wild type CD117 expressed on cells (M07e cells, unedited human CD34+ HSPCs) (human, UniProt P10721 26-976); assay: summary Table 75 (repeats Table 73)
T2 construct: Endogenous receptor on cells; also called wtCD117; WT CD117
T2 sequence (P10721 26-976 limits assumed): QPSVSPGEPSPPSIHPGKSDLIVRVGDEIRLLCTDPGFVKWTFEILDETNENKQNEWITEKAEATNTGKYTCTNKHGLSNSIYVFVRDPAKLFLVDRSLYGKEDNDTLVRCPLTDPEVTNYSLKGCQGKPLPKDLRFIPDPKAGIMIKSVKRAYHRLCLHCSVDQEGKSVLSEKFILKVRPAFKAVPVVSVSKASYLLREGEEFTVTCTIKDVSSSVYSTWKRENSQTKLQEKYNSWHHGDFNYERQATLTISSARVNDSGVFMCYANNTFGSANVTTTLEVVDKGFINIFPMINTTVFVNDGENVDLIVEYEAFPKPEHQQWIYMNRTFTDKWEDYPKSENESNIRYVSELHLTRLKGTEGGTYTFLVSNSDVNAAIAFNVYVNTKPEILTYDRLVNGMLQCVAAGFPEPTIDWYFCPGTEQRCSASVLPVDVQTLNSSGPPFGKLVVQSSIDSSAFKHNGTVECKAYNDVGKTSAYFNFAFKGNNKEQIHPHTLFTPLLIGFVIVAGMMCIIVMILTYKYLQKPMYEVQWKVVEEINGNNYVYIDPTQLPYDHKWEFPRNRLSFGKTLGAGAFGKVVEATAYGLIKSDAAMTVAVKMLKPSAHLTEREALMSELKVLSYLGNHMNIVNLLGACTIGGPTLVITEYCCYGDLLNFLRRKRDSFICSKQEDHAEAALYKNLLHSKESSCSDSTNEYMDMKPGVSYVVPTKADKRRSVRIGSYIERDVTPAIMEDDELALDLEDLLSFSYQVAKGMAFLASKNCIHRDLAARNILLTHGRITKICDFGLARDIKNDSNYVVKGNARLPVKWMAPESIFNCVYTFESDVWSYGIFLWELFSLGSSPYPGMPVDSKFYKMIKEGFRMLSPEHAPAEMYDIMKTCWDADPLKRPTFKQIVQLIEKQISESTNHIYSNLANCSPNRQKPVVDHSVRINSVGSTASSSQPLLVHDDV

EC50 [nM] | Binder
7.98 | B1
7.48 | B2
14.2 | B3
5.56 | B4

target: T3, CC128 variant of CD117 (Y259C + N260D) purified protein (human, UniProt P10721 26-520, limits assumed); assay: binding kinetics grade, FIGS. 55A-55C
T3 construct: also called CC128-edited CD117 as purified protein
T3 sequence (P10721 26-520 Y259C/N260D limits assumed): as the sequence (P10721 26-520 limits assumed) above, with Y234C, N235D counted along it

binding result | Binder
no binding | B9
no binding | B10
no binding | B11
no binding | B12
no binding | B13
no binding | B14
no binding | B15
no binding | B16
no binding | B17
no binding | B18
no binding | B19
no binding | B20
no binding | B21

target: CC200 variant of CD117 (S261G) purified protein (human, UniProt P10721 26-520, limits assumed); assay: binding kinetics grade, FIGS. 55A-55C
Sequence (P10721 26-520 S261G limits assumed): as the sequence (P10721 26-520 limits assumed) above, with S236G counted along it

binding result | Binder
no binding | B9
no binding | B10
no binding | B11
no binding | B12
no binding | B13
no binding | B14
no binding | B15
no binding | B16
no binding | B17
no binding | B18
no binding | B19
no binding | B20
no binding | B21

target: T1, Wild type CD117 purified protein; assay: KD, method not stated (Table 8B)

Kd [nM] | Binder
0.449 | B22

target: T4, Cyno CD117 (cynomolgus, UniProt F6V858 26-520 (rhesus entry)); assay: KD, method not stated (Table 8B)
T4 construct: also called cynomolgus CD117
T4 sequence (chain, as listed by the source): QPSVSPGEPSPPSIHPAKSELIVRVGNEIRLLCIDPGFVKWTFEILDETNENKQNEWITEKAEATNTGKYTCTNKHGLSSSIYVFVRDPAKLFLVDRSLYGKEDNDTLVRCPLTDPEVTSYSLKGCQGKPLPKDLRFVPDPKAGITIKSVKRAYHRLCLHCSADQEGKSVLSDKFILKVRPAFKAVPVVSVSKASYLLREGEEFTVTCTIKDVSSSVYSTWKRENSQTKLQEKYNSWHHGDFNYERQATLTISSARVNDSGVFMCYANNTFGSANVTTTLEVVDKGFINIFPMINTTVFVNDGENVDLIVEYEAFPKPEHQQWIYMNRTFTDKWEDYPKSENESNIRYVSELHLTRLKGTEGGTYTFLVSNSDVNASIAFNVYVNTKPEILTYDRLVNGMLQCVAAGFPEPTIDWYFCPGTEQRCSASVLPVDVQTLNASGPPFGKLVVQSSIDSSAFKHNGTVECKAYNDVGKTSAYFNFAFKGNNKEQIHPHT

Kd [nM] | Binder
0.83 | B22

target: T2, Wild type CD117 expressed on cells …; assay: flow cytometry on M07e cells, AF647 secondary (FIG. 76A)

EC50 [nM] | Binder
7.98 | B1
7.48 | B2
14.2 | B3
5.56 | B4

target: T1, Wild type CD117 purified protein; assay: monovalent KD, CD117 titrated (FIGS. 73A-73E)

Kd [nM] | koff [s⁻¹] | kon [M⁻¹ s⁻¹] | Binder
2.42 | 0.00014 | 57800 | B1
2.07 | 0.000117 | 56600 | B2
1.26 | 5.07e-05 | 40300 | B3
6.62 | 0.000643 | 97100 | B4
